Patent US20240408227A1

Target: recombinant human TfR1 (human) (UniProt P02786)
Test: SPR array (Carterra LSA), IgG captured, TfR as analyte, 25 C

Sequence of recombinant human TfR1 (human) (P02786 89-760 limits assumed): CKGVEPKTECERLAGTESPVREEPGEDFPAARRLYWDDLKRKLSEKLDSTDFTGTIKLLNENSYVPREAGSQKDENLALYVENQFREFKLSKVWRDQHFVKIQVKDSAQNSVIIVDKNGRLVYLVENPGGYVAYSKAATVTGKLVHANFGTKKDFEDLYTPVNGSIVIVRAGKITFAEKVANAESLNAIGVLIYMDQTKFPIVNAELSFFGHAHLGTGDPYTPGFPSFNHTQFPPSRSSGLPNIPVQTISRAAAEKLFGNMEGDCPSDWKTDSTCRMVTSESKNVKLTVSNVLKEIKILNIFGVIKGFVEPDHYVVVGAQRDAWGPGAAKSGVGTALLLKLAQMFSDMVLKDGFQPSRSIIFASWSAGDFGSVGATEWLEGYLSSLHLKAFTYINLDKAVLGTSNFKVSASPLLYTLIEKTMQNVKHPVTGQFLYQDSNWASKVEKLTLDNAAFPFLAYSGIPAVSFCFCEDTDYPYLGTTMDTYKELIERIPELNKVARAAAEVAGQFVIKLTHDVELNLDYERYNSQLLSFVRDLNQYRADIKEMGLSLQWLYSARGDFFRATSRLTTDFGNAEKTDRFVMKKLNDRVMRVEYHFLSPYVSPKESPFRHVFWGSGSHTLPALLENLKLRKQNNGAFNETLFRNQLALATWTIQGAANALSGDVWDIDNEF

- Kd: 0.536 nM
- kon: 774000 M⁻¹ s⁻¹
Substance: OKT9 control anti-TfR1 antibody (mouse IgG)
